In patent US20250135046A1, “CHOLECYSTOKININ B RECEPTOR-TARGETED COMPLEX AND A CONTRAST AGENT THEREOF” (National Atomic Research Institute, priority 2023, published 2025):
Square brackets hold non-standard residues; d marks the D form. Peptide text beside a SMILES is read from it. * marks the point of attachment. DOTA = O=C(O)CN1CCN(CC(=O)O)CCN(CC(=O)*)CCN(CC(=O)O)CC1; Butanoyl(4-(4-MePh)) = Cc1ccc(CCCC(=O)*)cc1; 4Amb = NCc1ccc(C(=O)O)cc1; Nle = CCCC[C@H](N)C(=O)O; Ahx = NCCCCCC(=O)O

System: tumor site where the cholecystokinin B receptor is overexpressed
Design: species or system nude mice
Settings: mouse, in vivo
Procedure: Establishment of tumor animal model: Five-to six-week-old male experimental nude mice are purchased from the National Laboratory Animal Center (NLAC, TAIWAN) and bred in the animal facility. All animal experiment procedures are performed in accordance with the protocols approved by Institutional Animal Care and Use Committee (IACUC, TAIWAN). The experimental mice are kept at a temperature of 21-23° C., and a 12-hour light-dark cycle are used as the basis for the animal's physiological cycle. A431-CCK2R^(−) and A431-CCK2R^(+) cells (2×10^6 cells) are inoculated in the left and right hind limbs of the mice. After the tumors growing to 200-300 mm^3, the radioactive labeled complexes Lu-177-D1, Lu-177-D2, and Lu-177-D3 are used as radiotherapy drugs and start the treatments. The cholecystokinin B receptor-targeted radiotherapy drugs […], Lu-177-D2, and Lu-177-D3 are administrated to the mice respectively by tail vein injection. After different time periods of administration, such as 4, 24, and 48 hours, the coronal sections of three tumor mice are obtained (Refer to FIG. 3). By showing the comparison of NanoSPECT and CT fusion images at different time points, the accumulation of these radiotherapy drugs in the tumor tissue can be observed. Then measure and record the tumor size twice a week. […]

Compound	duration of drug accumulation in the tumor site
CCCC[C@H](NC(=O)[C@H](Cc1c[nH]c2ccccc12)NC(=O)CNC(=O)[C@H](Cc1ccc(O)cc1)NC(=O)[C@H](C)NC(=O)[C@H](CCC(=O)O)NC(=O)[C@H](CCC(=O)O)NC(=O)[C@H](CCC(=O)O)NC(=O)[C@H](CCC(=O)O)NC(=O)[C@H](CCC(=O)O)NC(=O)[C@H](CCC(=O)O)NC(=O)CCCCCNC(=O)[C@H](CCCCNC(=O)CCCc1ccc(C)cc1)NC(=O)CN1CCN(CC(=O)O)CCN(CC(=O)O)CCN(CC(=O)O)CC1)C(=O)N[C@@H](CC(=O)O)C(=O)N[C@@H](Cc1ccccc1)C(N)=O [Lu-177-D1, metal not drawn] ({DOTA}-K(Butanoyl(4-(4-MePh)))[Ahx]EEEEEEAYGW[Nle]DF-NH2)	at least 48 hours
CCCC[C@H](NC(=O)[C@H](Cc1c[nH]c2ccccc12)NC(=O)CNC(=O)[C@H](Cc1ccc(O)cc1)NC(=O)[C@H](C)NC(=O)[C@H](CCC(=O)O)NC(=O)[C@H](CCC(=O)O)NC(=O)[C@H](CCC(=O)O)NC(=O)[C@H](CCC(=O)O)NC(=O)[C@H](CCC(=O)O)NC(=O)[C@H](CCC(=O)O)NC(=O)c1ccc(CNC(=O)[C@H](CCCCNC(=O)CCCc2ccc(C)cc2)NC(=O)CN2CCN(CC(=O)O)CCN(CC(=O)O)CCN(CC(=O)O)CC2)cc1)C(=O)N[C@@H](CC(=O)O)C(=O)N[C@@H](Cc1ccccc1)C(N)=O [Lu-177-D3, metal not drawn] ({DOTA}-K(Butanoyl(4-(4-MePh)))[4Amb]EEEEEEAYGW[Nle]DF-NH2)	at least 48 hours
